Earlier results on one substance are cited in article PMC9256694.

Broadly, the Kd is the equilibrium constant for the complex coming apart.

In this series the target is IL-2 receptor beta/gamma common chain (Homo sapiens) (UniProt P14784).
Sequence of UniProt P14784 (P14784 27-240, chain 1 of 2): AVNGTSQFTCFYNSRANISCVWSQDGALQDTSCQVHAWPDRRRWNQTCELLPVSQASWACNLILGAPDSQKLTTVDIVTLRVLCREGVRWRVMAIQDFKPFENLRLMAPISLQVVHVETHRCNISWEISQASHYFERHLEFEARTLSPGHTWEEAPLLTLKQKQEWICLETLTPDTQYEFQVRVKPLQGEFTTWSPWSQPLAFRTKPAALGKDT
Sequence of UniProt P14784 (P31785 23-262, chain 2 of 2, further chain): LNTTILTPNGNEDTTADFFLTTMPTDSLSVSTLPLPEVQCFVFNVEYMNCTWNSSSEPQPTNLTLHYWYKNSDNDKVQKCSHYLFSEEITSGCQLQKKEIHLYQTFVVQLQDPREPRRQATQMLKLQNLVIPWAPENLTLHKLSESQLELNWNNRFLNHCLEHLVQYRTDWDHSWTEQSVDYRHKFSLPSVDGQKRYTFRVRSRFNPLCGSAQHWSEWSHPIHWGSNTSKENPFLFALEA

Sequence of IL-2 (P60568 21-153): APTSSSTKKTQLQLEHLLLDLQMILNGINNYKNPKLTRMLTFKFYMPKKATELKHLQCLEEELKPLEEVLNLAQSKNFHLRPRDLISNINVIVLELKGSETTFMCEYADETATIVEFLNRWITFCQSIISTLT

As for IL-2 (from UniProt P60568), the dissociation constant Kd was 1 nM.
